Experimental data published in patent US20220017615A1 (SHANGHAI PHARMAEXPLORER, published 2022).

Molecular target: T1, His-tagged CD47 recombinant protein, CD47-His (human, UniProt Q08722 19-141, limits assumed)
T1 construct: it is not restated for CD47-His; also called human CD47-His protein; antigen CD47-His; not shown: His tag
Experiment: BLI (Octet Red 96), antibody on AHC sensor, CD47-His 100 nM

Binder	Kd [nM]	koff [s⁻¹]	kon [M⁻¹ s⁻¹]
c51E2F11 (antibody, V domains shown) VH: EVQLQQSGAELVKPGASVKLSCTASGFNIKDHYIHWMNQRTEQGLEWIGRIDPDDGETRYAPKFRGKATLTADTSSNTAYLQFSSLTSEDTAVYHCTRATTITRDWYFDVWGTGTTVTVSS VL: DIVMTQSQKFMSTSVGDRVSITCKASQNVRTSVAWYQQKPGQSPKALIYLASNRHTGIPDRFTGSGSGTDFTLTIRNVQSEDLADYFCLQHWDYPLTFGAGTKLELK	2.41	0.00103	428000
c25E3B5 (antibody, V domains shown) VH: QVQLQQPGTALVRPGSSVKLSCKASGYTFTSYWMHWVRQRPIKGLEWIGNIDPSDSETHYNQRFKDKVTLTVDKSSNTAYMQLSSLTSEDSAVYYCARWKYHGIGAMDYWGQGTSVTVSS VL: DVQITQSPSYLAASPGETVTISCRTNRNISKFLAWYQEKPGKTNKLLIYSGSTLHSGIPSRFSGSGSGTDFTLTISRLEPEDFAMYYCQQHNEYPWSFGGGTKLEIK	3.7	0.000867	234000
c54G8G6 (antibody, V domains shown) VH: QVQLQQPGADLVKPGASVKMSCKASGYTFTSYWIIWVKQRPGQGLEWIGDINPGRGSPNYNEKFKRKATLTVDTSSSTAYMQLSSLTSEDSAVYYCVRGGLRRFDHWGQGTLVTVSA VL: ENVLTQSPAIMSASPGEKVTMTCRASSSVSSSYLHWYQQKSGASPKLWIYSTSTLASGVPARFSGSGSGTSYSLTISSVEAEDAATYYCQQYSGYPYTFGGGTKLEIK	1.39	0.000478	343000

The next binders have a lower Kd than those just listed; values first:

Kd [nM]	koff [s⁻¹]	kon [M⁻¹ s⁻¹]	Binder
1.06	0.000284	268000	c4D10B11 (antibody, V domains shown) VH: QVQLQQSGPELVKPGASVKISCKASGYSFTSYYIHWVKQRPGQGLEWIGWIYPGSGNTKYNEKFKGKATLTADTSSSTADMQLSSLTSEDSAVYYCARRGDWYFDVWGTGTTVTVSS VL: DIVMSQSPSSLVVSVGEKVTMNCKSSQSLLFSGNQKSSLAWYQQKPGQSPKLLIYWASTRESGVPDRFTGSGSGTDFTLIISTVKAEDLAVYSCQQYYSYPLTFGAGTKLELK
0.982	0.000362	369000	c132D1E5 (antibody, V domains shown) VH: QVQLQQPGAELVRPGSSVKLSCKASGYTFTNNWMHWVKQRPLQGLEWIGNIDPSDSETHYNQKFKDKATLTVDKSSTTAYIQLSSLTSEDSAVYYCARWRGGGRGAMDYWGQGTSVTVSS VL: DVQITQSPSYLAASPGETITINCRTSKNISKFLAWYQEKPGKTNKLLIYSGSTLQSGIPSRFSGSGSGTDFTLTISNLEPEDFAMYYCQQHNEYPWTFGRGTKLEIK
0.695	0.000202	290000	c20H4G5 (antibody, V domains shown) VH: QVQLQQPGAELVRPGSSVRLSCVTSGYTFTSHWMHWVKQGPIKGLEWIGNIDPSDSETHYNQKFKDKATLTVDKSSSTAYMQLSRLTSDDSAVYYCARWRHLGIGAMDYWGQGTSVIVSS VL: DVQITQSPSYLAASPGETITINCRASKNISKFLAWYQAKPGKSNNLLIYSGSTLQSGIPSRFSGSGSGTDFTLTISRLEPEDFAMYYCQQHNEYPWTFGGGTKLEIK
